Laboratory results published in patent US20200362034A1.

Target: human glucagon ligand peptide-1 receptor (GLP1R) (human) (UniProt P43220)
Test: cell-based or functional assay

Sequence of human glucagon ligand peptide-1 receptor (GLP1R) (human) (P43220 24-463): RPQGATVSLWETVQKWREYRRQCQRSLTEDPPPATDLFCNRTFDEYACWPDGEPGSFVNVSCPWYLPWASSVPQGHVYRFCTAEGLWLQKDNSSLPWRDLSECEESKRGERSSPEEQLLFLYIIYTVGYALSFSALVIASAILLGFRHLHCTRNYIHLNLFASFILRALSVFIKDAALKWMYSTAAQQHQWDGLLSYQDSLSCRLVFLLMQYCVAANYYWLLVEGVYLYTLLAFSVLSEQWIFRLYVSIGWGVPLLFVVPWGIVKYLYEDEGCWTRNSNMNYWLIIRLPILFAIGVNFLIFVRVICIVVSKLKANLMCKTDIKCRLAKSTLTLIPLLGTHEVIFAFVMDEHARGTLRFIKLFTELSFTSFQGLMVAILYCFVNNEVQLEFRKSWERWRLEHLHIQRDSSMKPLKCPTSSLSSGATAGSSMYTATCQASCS

Extendin-4 (peptide)
EC 50 (nM), cAMP Hunter bioassay on CHO-K1 cells overexpressing human GLP1R: 0.46 nM
